# Assay: protease stability score; higher = more stable; yeast display proteolysis, trypsin and chymotrypsin;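 note: log10 excess protease needed over predicted unfolded state with 0 meaning unfolded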
sequence,measurement,value
EDEVLKELLEAVRHNDPDKIKELIDPNARFRVGDKSLHGMEEAAEQYARMMKRVDHIQIDSMSAHGDTFTVDQRFHFDGRTLSVTIRIRIHNGRIEELVIEVRSEEDKKNLDNLLS,protease stability score,-0.097
DERKEAKKWLDRLNKALHTGDSDKLKDMVDKDVRFNIGDKEIHGREQYVKHVQTRAEQIDDVQIHIHSIHVSGDEIVLTYHVVYNVNGRQESDVFNLVMVKNNGRLVVRSVTKG,protease stability score,-0.012
DTHKLREHARSMVEAMEDGDPQHLAKLMDENAKVTVGDKDVHGEEQAKRWAREWQKRFDHVEVDDLKVDNGRIRVKFHAQVNGREIFVIVKVEVRNGRIRSLSLEVRDEHVEKRLQD,protease stability score,0.909
DEEDLHRNMKQMLKDFNTGDPDKIQEQIDPNAKVQVGDTTFHGREEAHRMARDFRHQVDHIQLKEVKVRGNEFEASVVVKYDGKERRFVMQANVHNGKVKKLWFEDK,protease stability score,0.063
DEKDNKTLHKIIRHGDWKKLQDLADENASVDIGNKKFHGRREVSKAMERLREKVDSVQYHSITVEGNSARIVYNLEVNGNRVKVQMKFSMHNGHLQEVVIRATNEEDSKKIDKQLG,protease stability score,0.724
DTRARDIARRFWEAIRKNDPDKIKNQADENADFKVGDKTIHGMDHIIHHWEKVNKHARFQWERMEIKDSPNHVDVKYQFIVDVDGEPKTINATAQFQFHNGRIKNYEIQVDPEQFKEITK,protease stability score,0.523
DEDDKQEFAKSYNEVWKTGNEENAKRLFDENARMRVGDKEFHGHESIAHFLAEQVKRIDHIEFKQVDVQGEDMVFVFHFTVDGRKVHMTVKLRIHNGRIKDATINPQDIKKMEK,protease stability score,0.603
DDKKQQNMAKHFADAIRRGDPKTFSDLADPNVTAQYGDKSIHGKDEMREFWKQYHDRVDSVDVEKFSVRGDKIDIKMRAVVDGKDRVLDLDIQLHNGRATHIKVNPDQVREMDK,protease stability score,1.38
DDDLTRKVEKFMRNVQKGNEEELKKMMDPNVHAEVGDKVYHGREDAVEKRVTHYHEQNWRYEDIDLKVEGDRAKAKVVRVVNINGKPIRFEFSVNMRFHNGKITRINNDLPEEVLHKLKR,protease stability score,0.118
DEKLLELAKKMRRAEETGDEDQLREMADKDAKFDIGDKRIHGMDTFVRQIKHELDKMRREITSVEFRVEGEEVVIHVHWVYSHNGQPRTKEYTMKFEIRGDKIKDLHIDNRG,protease stability score,0.007
DEENVDRMEEIIRSGDFKELLELADPNVKVVVGDKEYSGRHVATTVLQSLYEQVDHHKVHSVQNEGETVEFDLKVVVNGQEMRMRFVIVFENGRIKTIQIEFTDPRQEEKFLKNIK,protease stability score,1.08
DQENLDVLRRLWEALESGNPDKYSQLIDPNAEVVVGDKTYEGKENLKQEIRTERDEMRKEIDWKSMSVHNGQANAEAKIRSNHNGDPREMVVTARARFHNGKLQNYEQHVDK,protease stability score,-0.325
DDEDDKRLADEFNTAVKQGDEDQLKNLMDEDATAEIGDKQLTGRENAAKHLVTLARHADHIQVNSVRVHDGRIRIDMRMIFNGQDHHYDIKIEVHNGRIKRMTVRNK,protease stability score,1.6
DQDEQRHQMEEVRKAFQRGDNEKFERLADPNVRYQVGDKTYHGREQASKALSDIREQVDHLEIKDYKIHGNKLDINVVVDINGEKHEYRIIVHIHNGRITRYQFQST,protease stability score,0.73
DEHIAKDLHRLAETGNWQELVEQADKDAKAKVGDKTYHGREDLQTLNRQWNEHVDHENLERVTLNPDHLVILFKMQVNGKDFAANVRIRRHNGRVEHIQVDARDDEQKKILHELLS,protease stability score,0.657
DEKQAKKVLKQMVKAVFNNDEELLKKLGKEDVEVQFMDTKYKGPDQLKKILEQYKRYGIEFHIKKTKVEGDKMQVHAQVHLADNTADVTAEYQADNGKVDHTRVQFSDTAKEVFKKG,protease stability score,-0.003
EHENVRLARSLIDALQQNNPQQAQENADKDVQYEVGEKRIHGREQYSDTMRKNKEQMEFRVHSVDMDEHNGRVTVNLTFIESTNGDPKQDRANLVIEFHNGRIQHVRMSKDG,protease stability score,-0.268
DEEDDRRTAKRFAENVMKGNQDEARKLADEDATVNVGDQHVHGREELARVMHDLRRQVDHIQLDSLEVQGNKADINVTMRVNGRHVTADITVTVHNGRVKQFSLNPEVAQEIKR,protease stability score,-0.345
DEDEVEKIATTIKDVIQEGNFRQLEKLADPNAKVVIGDKTYRGRDAMRHAAQLLQQRADHITVQTVHVHGNKVEAHLRATVNGRDVHFVVKVTLENGRIKNMKIEYTDEDKFKEMVG,protease stability score,1.31
DEEKNKKIARSLFQVFRTGDENRAQDMADENATARVGDKSVHGKEEFRKFVQEFLRQVDHMDVQEYRVRGNRINIIAVIHHNGQRLKVVITIVLHNGRIVHMVIRYTNPSQWKRVMS,protease stability score,0.597
DEHLVEKVEEFLQNLQNNNEEEIQKQVDPNAKIDVGDKTVDGREEANKWAEELKDESRFEIKDVKYESHNGRVRANFTAQVDHNGRPETRKYDITFNWHDGVIKHIDNKTTS,protease stability score,0.403
EDELRTMVDQVMEAQKTGDFDKFIEQFDPNAHRRVGDKEVEGQEEMRHEQKRRDDNIRVDYNRMSVQVSNGVAKLTVHLNAHVNGKPVRLTIDIVFHARNGRFQSMQVDFTREQEKRKRS,protease stability score,-0.213
DEDDNKIAKEWYKAIQRGDPDRVKQLVDPNVKIRIGDKDIRGRENFATEVERMRDEIEVVFKVKDMKDQGDKANVEYEYQTQSNGRPRTKSQTVNVSMHNGHVKHVNVRDDQ,protease stability score,-0.301
DDELVRSAEHLFKVWQDGNPDEAKRYMDPNAELKVGDKTVHGRDDANRWVEQLQRELRYHFTINNVERQGNTVVIKATATEHHNGKPKTYSVDIEIEAQNGKVKLVIIRING,protease stability score,-0.09
DEEAVNLINRLLEARKYNDPDSMKRLADENAQFVIGDKEVKGMETYARHVVQTMSRWRIDIKSVHHQSRGSKAEVDVRAKVNVNGRPDTLSITYRAHVTNGRIKELEVRFDPDQHRKLTS,protease stability score,0.019
DQEKNNHDAKKWVKNLRTGNEDELQRLFDEDARFNYGDKTVTGREQLQEWAHRMQRRIDSVDVRSVSQHGDKMNIDVVVRVDGRDRRFIFRAEIHNGRIKNAWMEDT,protease stability score,0.497
DERVNREWEKFIHAFESGNESQLKRLMDKDVRLTVGDKQIEGREEMARQLKKRRDQSRVSINIESVQHDGDKVHIQFHVTNNKNGRPEKRTSVVTVEAHNGKLKEVNIDDKP,protease stability score,0.803
EEELEKEAEKFFRIVHDGNEDDLKRYMDPNVDITVGDKSLTGHSHYARRVKQKKRELRVDIKIESIKADGNRVSATVVWVNNHNGEPQSDAAEVEFNFHNGRVTHIRNDDDK,protease stability score,0.151
DEEFRHKVAKALQSNNEHQLHELMDKDAKMTIGDKTVHGREEIHRVLRRLREQADHWHVSRFKIHNGKIVADVQVHINGQTYHMTITAFARGDRIERLEYTVRDEDLLRKIQRWLG,protease stability score,1.97
DDDSQNEFLQRVAEAIVTGDEKSLVRMMDPNARANVGDKQFHGREQMARWARELRERVDHLQVDDLQNHNGRLHMDIQFKDNGKNKHFIIQVEAHNGKVTKMSADEK,protease stability score,1.36
EEELAKSYVELLKQLSEGNEENLKELMDPNARIEVGDKELHGREDIVNTWSKEAREIRIHYEIKHIEQEPGRVTIHARVEVQHDGQPSSKDFNVVFTAKNGRLTKMTVQDDG,protease stability score,0.767
DEDKVKKIAEELWKAISNGDEERMKKLMRDDVRAQVGDTEVHGREHVVHQLATFAKQVDHLTMETYDIRGNHVTFRFQARVNGKRVQIDMVIHVSNGRIKELRIDPKQVKELES,protease stability score,1.22
DEEEMDRFIKHLERNDEDRWVQMADPNVKVRIGDNTLRGREQLKKWFHRFRKRVDTYSIDSYTVHGEKIKVRAKFQVDGRNVQFSFVVVIKNGRIKSATYEARNEEDQEQDKRDLE,protease stability score,1.5
DEHEKQKKAKDAADLIRHNNPERVAELFDEDARVRVGDHTYHGREHIVRVLQTLVDQIDHMQLTDLDVHGETLRLHIVMQINGKKVDMQLDIELKNGKMKRMRFDPDRVRDVQK,protease stability score,0.466
DDDQNRRFKEMLEVRKTGDEHRLKQLLDPNARLNIGDKRIHGREEIARFMKTKFDESRSEVDVKDVKAHNGRISVTADFRNSSNGQPQRYTATMRATIHNGSFQEIQIDTEK,protease stability score,-0.234
DQRERQEHAEHFNRVLQTNDPDRIKKLFDPNAKLQIGDSTFTGREDIDDAAKELKEQADHITVDRVHVHGNKVTLRFVMNVDGKSADATVTMIVKNGRAKEVHFDPRLEEQIKK,protease stability score,-0.407
DEDEERDFEEMWKVFHKGNPDDYKKMIDKDVEIRIGDKTVHGREEIVRQVHHEMNNINFQLQSVDIRVTNGRVEIDVRYVSNVNGRPDTIRYTYHASASNGKLKTAEYRISEDQQNRHRR,protease stability score,-0.273
DEKETKKVLERIVKIFENGNAEEAKKMGKEDVEVEYGDETKHGPDALYEFIEKMKKLGAKVEYKEVHVEGDKVTVRIQADYGGRRAEMHVTYQATGNRVDNVKLKYSKTAQEMIKHG,protease stability score,0.084
DDDLVRKAKKFYEIVETGDEDKIVKMLDKDAQINVGDRRIDGREDIKTFEHKQVQHMRIEFDSVHASHQGDKVRVRAQMTVDVNGNPITYQAEFVFNVKNGRIKNLEQRVDEKEMKKIKS,protease stability score,0.007
DEDKEIRKFIKNNKDILKNGDPREYVRQMDPNAKMQYGDKQVRGNDQLERHLHTKLKRIDSQSVDFKDVDLKGDKIRLRARRTYQFNGRTSSEEFVVVMTFTNGQARVHKINYK,protease stability score,0.103
DDEKVQKAAHNLIQAIKSGDEDRMRKLMDPNVRVVVGDKEVSGSDDAARFLRELRERVDHVEVKRVEAHNGRIKIDAVNRHNGHDHRFVLEAEVHNGTVKQIRIKEQ,protease stability score,1.43
DDHAVRMAKTYQKAIQHNDPDKMVDLVDPNAKIHIGDKDIQGREELRRWVKHRIDDINIIIERVSATDKGDKAIVTVDLVENENGRPHNVRFEVTFDFKNGRAQRVTVQESR,protease stability score,-0.088
DETASRAAERYMKALQTGDPDEVVKQIDPNVHVRVGDKEVQGKEQFRKKQERDKKQARYHIKHVTFNVEGDKVRVDVIFRKHHNGQPRHDRMEQRMSVRGDKITHQENHKTG,protease stability score,0.02
DHERLKEFIKIQQENNPDQLRNQMDPNVKARVGDKEFKGREQVVKWLKRIMDQADHIHYDDLKSQGNSVTINAVVEVNGKSFQYNMVVEFHNGRIREIKVEVRNHRVKEILERIEG,protease stability score,1.62
DSQERADDWMRDFNRAVQHGDPTQLTDLMDKDANARIGDTSVHGRHHLVTRWQQFRTDVDRVDIHIVSIEVQGDKIHIDMTFQADVNGRRKEDHIVIIAVDRNGKVKVQQIQDK,protease stability score,-0.337
DEEDEKHIDDVLKQGDFDEMARNADKDATVRIGEKEYRGREDVVRMLEIIHKRADEVHVDSVRVTNGRLKMDVVFDVNGVQANVILVINVHNGKIKNITLKYRNEELSRKLDKILR,protease stability score,0.821
DHQASEKLSQLWKALNTGNPEQFSKNADPHVRHHVGDTSIQGREQFNEQIKREQKEMRVQIQVQSIHVRGDKIRVRAVYTFHINGQPRKDTFVAKFVVKNGRIKKASIRIDPRKVKERNS,protease stability score,0.11
DDEERRKLADDLIKILQTGSSNDVRKLVDPNAKAHYGEKDFHGERELAKFMKEIADNVDHIEIETMEVHGDRVKIVMVIVHNGKQRRFVMVLVVHNGRIKKASQTSQ,protease stability score,1.46
DREEAKKVAEKAAKYFQNWNVEQLLKLIPDGGKYRIADEERHGPDVIKEVVEKQQRMGLEVEVKEVHAEGDTVHTVLDYRLGDTTATVHIQAKVQGGRIDEVQVDIPEEAQKMLKQG,protease stability score,0.401
DEEDERRKVQDVAKAIKKGNEKELRKLADEDAKWRVGDTDLHGMERIQKDQATRRREVDNVEIKSVDVHNGRAHVTFVVNHNGKNVEVTNTADFKNGKVKNVQVDPSKVEELKK,protease stability score,-0.328

# Reference: the NTF2 design screens of Basanta et al. (2020)
